# Experimental data as given in publication PMC2796330 (Molecular cell, 2009).
# Where no end group is shown, it is not given here. [ ]: non-standard residue; d: D form. pT = C[C@@H](OP(=O)(O)O)[C@H](N)C(=O)O
# Assays:
# [1] = target: recombinant Nedd4L WW2 domain; test: ITC
# Smurf1 WW2 domain = test: ITC
# Smurf1 WW2 domain, sequence (Q9HCE7 whole entry, the tested form may be a part): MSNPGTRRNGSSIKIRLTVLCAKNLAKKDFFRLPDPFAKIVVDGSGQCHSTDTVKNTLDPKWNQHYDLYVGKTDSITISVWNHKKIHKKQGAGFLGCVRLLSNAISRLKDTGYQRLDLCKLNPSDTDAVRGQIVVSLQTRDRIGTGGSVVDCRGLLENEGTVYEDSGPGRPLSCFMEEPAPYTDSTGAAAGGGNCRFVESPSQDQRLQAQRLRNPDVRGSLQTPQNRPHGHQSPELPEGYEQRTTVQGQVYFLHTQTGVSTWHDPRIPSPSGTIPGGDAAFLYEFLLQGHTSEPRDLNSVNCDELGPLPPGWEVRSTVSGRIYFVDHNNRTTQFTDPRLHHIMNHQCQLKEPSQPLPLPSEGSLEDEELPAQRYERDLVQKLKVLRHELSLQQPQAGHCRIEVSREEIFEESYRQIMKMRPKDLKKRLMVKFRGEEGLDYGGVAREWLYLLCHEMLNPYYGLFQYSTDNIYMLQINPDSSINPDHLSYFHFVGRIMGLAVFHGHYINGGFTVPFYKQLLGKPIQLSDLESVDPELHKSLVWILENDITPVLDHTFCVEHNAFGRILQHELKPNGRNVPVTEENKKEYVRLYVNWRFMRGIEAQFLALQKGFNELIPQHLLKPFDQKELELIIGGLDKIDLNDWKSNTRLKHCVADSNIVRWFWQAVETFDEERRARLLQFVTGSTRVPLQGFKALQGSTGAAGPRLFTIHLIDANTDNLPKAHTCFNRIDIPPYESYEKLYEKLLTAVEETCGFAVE
# recombinant Nedd4L WW2 domain, sequence (Q96PU5 whole entry, the tested form may be a part): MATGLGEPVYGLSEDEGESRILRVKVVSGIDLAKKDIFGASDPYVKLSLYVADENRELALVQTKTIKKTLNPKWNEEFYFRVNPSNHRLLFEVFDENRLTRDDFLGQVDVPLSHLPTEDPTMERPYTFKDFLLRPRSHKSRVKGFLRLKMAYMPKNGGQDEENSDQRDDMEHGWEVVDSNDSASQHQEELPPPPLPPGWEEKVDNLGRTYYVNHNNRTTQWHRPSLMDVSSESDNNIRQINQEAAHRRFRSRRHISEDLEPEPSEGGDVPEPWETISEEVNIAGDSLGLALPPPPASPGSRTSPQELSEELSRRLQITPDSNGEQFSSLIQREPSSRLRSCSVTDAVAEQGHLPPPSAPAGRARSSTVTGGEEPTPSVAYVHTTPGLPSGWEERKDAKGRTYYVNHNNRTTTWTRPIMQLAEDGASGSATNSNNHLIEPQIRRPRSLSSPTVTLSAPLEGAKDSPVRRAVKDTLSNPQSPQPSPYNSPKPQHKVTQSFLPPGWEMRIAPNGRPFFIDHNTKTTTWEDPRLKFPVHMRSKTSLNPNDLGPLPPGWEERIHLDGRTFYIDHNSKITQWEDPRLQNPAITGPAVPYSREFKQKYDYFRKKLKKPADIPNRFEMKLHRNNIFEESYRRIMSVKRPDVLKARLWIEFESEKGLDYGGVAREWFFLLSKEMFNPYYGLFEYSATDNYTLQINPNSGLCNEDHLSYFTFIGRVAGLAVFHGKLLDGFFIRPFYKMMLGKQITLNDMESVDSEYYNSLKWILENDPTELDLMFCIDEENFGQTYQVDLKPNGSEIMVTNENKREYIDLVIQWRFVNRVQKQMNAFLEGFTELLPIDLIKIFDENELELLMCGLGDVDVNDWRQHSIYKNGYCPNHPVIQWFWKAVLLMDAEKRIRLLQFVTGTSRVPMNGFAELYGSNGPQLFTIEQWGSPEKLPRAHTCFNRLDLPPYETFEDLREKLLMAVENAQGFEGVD
Binder,Kd [1] [µM],Kd (Smurf1 WW2 domain) [µM]
IPE[pT]PPPGYLSED [Smad3 pT-PY motif peptide (phosphothreonine)],4.1,36
PADTPPPAYLPPE [Smad1 T-PY motif peptide],,32
IPE[pT]PPPGYISED [Smad2 pT-PY motif peptide (phosphothreonine)],7.8,
